Test results as given in patent US20220048967A1 (published 2022).
Numbering of substitutions follows the chain as printed.

B1: Example 329 (peptide)
peptide: XXEGTXTSDYSILLDKKAQXAFIEYLIEGGPSSGAPPPS
modifications: D-Tyr1, Aib2, αMeF6, K17 conjugated to (2-[2-(2-Amino-ethoxy)-ethoxy]-acetyl)2-(γ-Glu)-CO-(CH2)18-CO2H, Aib20, C-terminal amide (NH2)
B2: Example 345 (peptide)
peptide: B1 peptide with L13X, A21E, E28A
modifications: D-Tyr1, Aib2, αMeF6, αMeL13, K17 conjugated to (2-[2-(2-Amino-ethoxy)-ethoxy]-acetyl)2-(γ-Glu)-CO-(CH2)18-CO2H, Aib20, C-terminal amide (NH2)
B3: Example 290 (peptide)
peptide: B1 peptide with X6F, L13X, A21E, E28A
modifications: D-Tyr1, Aib2, αMeL13, K17 conjugated to (2-[2-(2-Amino-ethoxy)-ethoxy]-acetyl)2-(γ-Glu)-CO-(CH2)18-CO2H, Aib20, C-terminal amide (NH2)
B4: Example 334 (peptide)
peptide: B1 peptide with X6F, L13X
modifications: not fully specified; D-Tyr1, Aib2, αMeL13, K17 conjugated to (2-[2-(2-Amino-ethoxy)-ethoxy]-acetyl)2-(γ-Glu)-CO-(CH2)18-CO2H, Aib20, C-terminal amide (NH2)
B5: Example 346 (peptide)
peptide: B1 peptide with X6F, L13X, K16X, E28A
modifications: D-Tyr1, Aib2, αMeL13, Orn16, K17 conjugated to (2-[2-(2-Amino-ethoxy)-ethoxy]-acetyl)2-(γ-Glu)-CO-(CH2)18-CO2H, Aib20, C-terminal amide (NH2)
B6: Example 335 (peptide)
peptide: B1 peptide with L13X
modifications: not fully specified; D-Tyr1, Aib2, αMeF6, αMeL13, K17 conjugated to (2-[2-(2-Amino-ethoxy)-ethoxy]-acetyl)2-(γ-Glu)-CO-(CH2)18-CO2H, Aib20, C-terminal amide (NH2)
B7: Example 340 (peptide)
peptide: B1 peptide with X6F, L13X, E28A
modifications: not fully specified; D-Tyr1, Aib2, αMeL13, K17 conjugated to (2-[2-(2-Amino-ethoxy)-ethoxy]-acetyl)2-(γ-Glu)-CO-(CH2)18-CO2H, Aib20, C-terminal amide (NH2)
B8: Example 337 (peptide)
peptide: B1 peptide with X1F, X6F, L13X, E28A
modifications: not fully specified; Aib2, αMeL13, K17 conjugated to (2-[2-(2-Amino-ethoxy)-ethoxy]-acetyl)2-(γ-Glu)-CO-(CH2)18-CO2H, Aib20, C-terminal amide (NH2)
B9: Example 341 (peptide)
peptide: B1 peptide with X6F, L13X, K16E, E28A
modifications: not fully specified; D-Tyr1, Aib2, αMeL13, K17 conjugated to (2-[2-(2-Amino-ethoxy)-ethoxy]-acetyl)2-(γ-Glu)-CO-(CH2)18-CO2H, Aib20, C-terminal amide (NH2)
B10: Example 333 (peptide)
peptide: B1 peptide with X1Y, X6F, L13X, A21E
modifications: Aib2, αMeL13, K17 conjugated to (2-[2-(2-Amino-ethoxy)-ethoxy]-acetyl)2-(γ-Glu)-CO-(CH2)18-CO2H, Aib20, C-terminal amide (NH2)

Experiments:
human GLP-1 receptor = human GLP-1 receptor (human, UniProt P43220 24-463); assay: cell-based or functional assay
[1] = biological target: Pro-Link-tagged Human GLP-1R (human, UniProt P43220 24-463); assay: cell-based or functional assay
Wherever hGLP1R B-Arrestin2 % Top is given: reference of the scale not given here.
Wherever hGLP1R GTPgS % Top is given: reference of the scale not given here.

| Binder | hGLP1R GTPgS % Top (human GLP-1 receptor) | hGLP1R GTPgS Rel EC50 (human GLP-1 receptor) | hGLP1R B-Arrestin2 % Top [1] | hGLP1R B-Arrestin2 Rel EC50 [1] |
| --- | --- | --- | --- | --- |
| B1 | 83.6% | 0.343 nM | 63.4% | 4.73 nM |
| B2 | 62% | 0.684 nM | 74.7% | 3.08 nM |
| B3 | 66.2% | 0.466 nM | 20% | 23.8 nM |
| B4 | 70.2% | 0.432 nM |  | > 10300 nM |
| B5 | 56.6% | 0.737 nM | 19.3% | 3.25 nM |
| B6 | 89.3% | 0.285 nM | 73% | 5.31 nM |
| B7 | 67.4% | 0.45 nM | 20.1% | 10.7 nM |
| B8 | 59.5% | 0.322 nM | 34.1% | 17.4 nM |
| B9 | 78.9% | 0.496 nM | 21.9% | 18.8 nM |
| B10 | 83.4% | 0.442 nM | 58.2% | 54.8 nM |
